# Biological target: T1, Mouse recombinant EMMPRIN (mrEMMPRIN) (Mus musculus, UniProt P18572)
# T1 construct: mrEMMPRIN is a chimeric protein composed of the extracellular portion of EMMPRIN fused to the Fc portion of human IgG; purchased R&D Systems
# Test: Indirect ELISA, specificity of the antibodies to EMMPRIN
# Conditions: mrEMMPRIN 200 ng/ml coat; OD of Fc binding subtracted; n=4
# Experimental: Indirect ELISA: This assay was developed to determine the specificity of the polyclonal antibodies for the EMMPRIN protein. Mouse recombinant EMMPRIN (mrEMMPRIN, 200 ng/ml in PBS, R&D Systems) or the Fc portion of the human IgG were applied on wells of a 96-well plate and incubated at 4° C. overnight to coat the wells. Excess antigens were removed by washing three times with wash buffer (0.05% Tween-20 in PBS), followed by blocking of the remaining free protein-binding sites with blocking buffer (1% BSA in PBS) for 2 hours at room temperature. After additional washes, strips of mouse recombinant EMMPRIN or Fc were coated with each of the primary antibodies (immune or pre-immune sera) diluted 1:500 and 1:5000 in PBS, and incubated for 2 hours at room temperature. […] The reaction was stopped with stop solution (0.25M HCL), and the absorbance of each well was measured at 450 nm and at a reference of 540 nm. […]
# The specificity and ability of the antibodies to recognize mrEMMPRIN in its native structure were also tested by indirect ELISA, using mrEMMPRIN (200 ng/ml) or human IgG Fc protein (hFC, 200 ng/ml) to coat 96-well plates. […] P values were calculated by the Mann-Whitney T test. **, p<0.01, relative to pre-immune sera. […]
# T1 sequence (P18572 with tags, fused parts or gaps isoform P18572-2 limits assumed): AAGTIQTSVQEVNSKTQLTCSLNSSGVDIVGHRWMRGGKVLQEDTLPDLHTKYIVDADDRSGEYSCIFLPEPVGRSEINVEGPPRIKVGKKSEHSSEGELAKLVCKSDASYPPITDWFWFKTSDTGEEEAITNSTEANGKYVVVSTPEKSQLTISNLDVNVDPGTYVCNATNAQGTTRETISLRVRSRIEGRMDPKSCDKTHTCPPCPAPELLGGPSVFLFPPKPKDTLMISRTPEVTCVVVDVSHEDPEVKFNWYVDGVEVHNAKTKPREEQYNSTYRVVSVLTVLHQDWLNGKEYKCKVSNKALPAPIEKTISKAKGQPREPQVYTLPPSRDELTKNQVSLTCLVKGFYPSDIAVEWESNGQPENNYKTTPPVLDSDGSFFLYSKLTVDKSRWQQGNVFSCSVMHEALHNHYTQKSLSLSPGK
sequence,measurement,value
"GHRWMRGGKVLC [Peptide 161, 12aa peptide from the EC-I domain of mouse EMMPRIN]","Immune sera (OD values, indirect ELISA)",0.052 ± 0.026
